We go through four molecules from US20250282881A1 (SHANGHAI EPIMAB BIOTHERAPEUTICS, published 2025).

Assay [1] has as its target T1, human PD-L1 on cells (CHO-PD-L1, CHO-PD-L1-OS8) (human, UniProt Q9NZQ7 19-290).
T1 construct: whole, on cells; also called PD-L1 over-expressing cells; CD274
The assay can be described thus: cell-based receptor blocking assay, FACS: antibody against PD-1-mFc binding to CHO-PD-L1 cells, anti-mouse IgG detection. The protocol: Blocking of PD-1/PD-L1 binding was assessed in a cell based receptor blocking assay (RBA), 100 μl of 2×10⁵ cells/well of CHO-PD-L1 cells were added to a 96-well round-bottomed plate (Corning, Cat #3799), 50 μl serial diluted of antibody at 0.016 nM to 50 nM and 50 μl of 50 μg/ml PD-1-mFc (Novoprotein, #C754) were added to each well, mixed gently then incubated at 4° C. for 1 hour. The cells were washed and stained by Alexa Fluor® 647 anti-mouse IgG (1:500, Jackson ImmunoResearch, #115-606-008). Signals were read out by FACS and curves were fitted by GraphPad Prism 8.0.

The target of assay [2] is recombinant cyno PD-L1-his protein (cyno, UniProt G7PSE7 19-239). Briefly: BLI (Octet Red96), FIT1014-20a on AHC sensor, cyno PD-L1-his as analyte. The protocol:
(§1) The PD-L1 binding activities of FIT1014-20a were detected by biolayer interferometry using an Octet® Red sensing device (ForteBio, Red96). […] The association and dissociation curves were fitted to a 1:1 Langmuir binding model using FortéBio Data Analysis software (Pall) to produce kinetic rate constants Kon and Koff. The equilibrium dissociation constant KD (M) of the reaction between antibodies and related target proteins was then calculated by KD=koff/kon.
(BLI is a label-free optical method that tracks binding on a fibre tip over time.)

Assay [3] concerns the target Cyno OX40 (protein analyte in BLI, Table 10) (cyno). Briefly: BLI (Octet Red96), FIT1014-20a on AHC sensor, cyno OX40 as analyte.
Assay [4] concerns the target T2, recombinant human PD-L1/His fusion protein (Novoprotein, Cat. No. C315) (human, UniProt Q9NZQ7 19-239).
T2 construct: also called recombinant human PD-L1-his protein
The assay can be described thus: BLI (Octet Red96), FIT1014-20a on AHC sensor, human PD-L1-his as analyte. The protocol: as §1

The target of assay [5] is T1, human PD-L1 on cells (CHO-PD-L1, …). The assay can be described thus: FACS on CHO-PD-L1 cells, Alexa Fluor 647 anti-human IgG, MFI. The protocol:
Cell binding affinity of PD-L1/OX40 antibodies were measured against CHO (ATCC, #CCL-61) overexpressing human PD-L1 (CHO-PD-L1) and CHO overexpressing OX40 (CHO-OX40), respectively. Briefly, 5×10⁵ cells were seeded into each well of a 96-well plate (Corning, #3799). Cells were centrifuged at 400 g for 5 minutes and supernatants were discarded. For each well, 100 μl of 3× serial dilution of antibodies starting from 100 nM were then added and mixed with the cells. After 60 minutes of 4° C. incubation, plates were washed several times to remove excess antibodies. […] After another round of centrifugation and washing, cells were resuspended in FACS buffer for reading on a CytoFLEX Flow Cytometer (Beckman Coulter). Median Fluorescence Intensity (MFI) readouts were plotted against antibody concentration and analyzed with GraphPad Prism 8.0.

Assay [6] has as its target T2, recombinant human PD-L1/His fusion …. The assay can be described thus: BLI (Octet RED96), antibody on AHC sensor, PD-L1/His as analyte, test group 1. An excerpt: Based on titer and purity, 10 of the 50 humanized antibodies were selected and further assayed in two groups for dissociation rate constant (koff) as shown in Table 7. Chimeric antibody EM0005-86c having VH/VL sequences identical to EM0005-mAb86 (as provided in Table 6) was used as a positive control in each group and served as a basis for normalization. Briefly, antibodies were characterized for affinities and binding kinetics by Octet® RED96 biolayer interferometry (Pall FortéBio LLC). Anti-hIgG Fc Capture (AHC) Biosensors (Pall) with antibody captured at a concentration of 100 nM for 120 seconds were dipped into running buffer (1× pH 7.2 PBS, 0.05% Tween 20, 0.1% BSA) for 60 seconds to check the baseline, then dipped into a single concentration of recombinant human PD-L1/His fusion protein (Novoprotein, Cat. No. C315) to measure binding for 200 seconds, followed by dipped into running buffer to measure dissociation for 600 seconds. The association and dissociation curves were fitted to a 1:1 Langmuir binding model using FortéBio Data Analysis software (Pall). The off-rate ratios shown in Table 7 were calculated by off-rate of a humanized antibody to that of EM0005-86c in the same test group. The off-rate ratio serves as a normalized index, so that the humanized antibodies can be compared to one another across test groups. The lower off-rate ratio indicates higher affinity of an antibody for human PD-L1. HuEM0005-86-21 was selected for further investigation based on the purity and off-rate data.

Chain of recombinant cyno PD-L1-his protein (G7PSE7 entry or part of it): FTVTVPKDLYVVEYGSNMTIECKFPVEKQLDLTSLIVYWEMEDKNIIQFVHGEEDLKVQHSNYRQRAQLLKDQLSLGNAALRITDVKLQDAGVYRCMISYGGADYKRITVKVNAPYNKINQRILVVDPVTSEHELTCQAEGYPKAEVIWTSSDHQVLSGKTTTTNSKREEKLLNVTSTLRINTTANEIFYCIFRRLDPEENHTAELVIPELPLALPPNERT
T2 sequence (Q9NZQ7 19-239 limits assumed): as the sequence (G7PSE7 entry or part of it) above, with T33A, S34A, N62S, Q68R, R82Q, L173F, A185T, I192T, L215H counted along it
T1 sequence (Q9NZQ7 19-290): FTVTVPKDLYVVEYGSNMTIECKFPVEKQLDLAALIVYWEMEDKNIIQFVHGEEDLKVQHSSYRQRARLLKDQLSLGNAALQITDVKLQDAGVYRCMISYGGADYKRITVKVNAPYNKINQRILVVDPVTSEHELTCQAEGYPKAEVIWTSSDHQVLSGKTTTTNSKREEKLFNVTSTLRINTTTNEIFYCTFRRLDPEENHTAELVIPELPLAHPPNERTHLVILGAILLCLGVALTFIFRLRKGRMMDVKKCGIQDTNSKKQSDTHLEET

B1: FIT1014-20a (bispecific antibody, human IgG1, kappa, L234A L235A)
chain 1: DIQMTQSPSSVSASVGDRVTITCKASQDVGTAVAWYQQKPGKAPKLLIYWASTRHTGVPSRFSGSGSGTDFTLTISSLQPEDFATYYCQQYSSYPYTFGGGTKVEIKRTVAAPSVFIFPPSDEQLKSGTASVVCLLNNFYPREAKVQWKVDNALQSGNSQESVTEQDSKDSTYSLSSTLTLSKADYEKHKVYACEVTHQGLSSPVTKSFNRGECEVQLQQSGAEVKKPGSSVKVSCKASGHAFSSSWMNWVKQRPGKGLEWIGRIYPGDEITNYNAKFKDKATLTADKSTSTAYMELSSLRSEDTAVYYCARDLLMPYWGQGTLVTVSSASTKGPSVFPLAPSSKSTSGGTAALGCLVKDYFPEPVTVSWNSGALTSGVHTFPAVLQSSGLYSLSSVVTVPSSSLGTQTYICNVNHKPSNTKVDKKVEPKSCDKTHTCPPCPAPEAAGGPSVFLFPPKPKDTLYITREPEVTCVVVDVSHEDPEVKFNWYVDGVEVHNAKTKPREEQYNSTYRVVSVLTVLHQDWLNGKEYKCKVSNKALPAPIEKTISKAKGQPREPQVYTLPPSREEMTKNQVSLTCLVKGFYPSDIAVEWESNGQPENNYKTTPPVLDSDGSFFLYSKLTVDKSRWQQGNVFSCSVMHEALHNHYTQKSLSLSPGK
chain 2: EVQLVQSGSELKKPGASVKVSCKASGYTFTTYGINWVRQAPGQGLEWMGYIYIGNAYTEYNEKFKGRFVFSLDTSVSTAYLQISSLKAEDTAVYYCARDLMVIAPKTMDYWGQGTTVTVSSASTKGPSVFPLAPSSKSTSGGTAALGCLVKDYFPEPVTVSWNSGALTSGVHTFPAVLQSSGLYSLSSVVTVPSSSLGTQTYICNVNHKPSNTKVDKKVEPKSC
chain 3: DIVMTQTPLSLPVTPGEPASISCRSSKSLLYSNAITYLYWYLQKPGQSPQLLIYQMSNLAPGVPDRFSSSGSGTDFTLKISRVEAEDVGVYYCAQNLELPFTFGQGTKLEIKRTVAAPSVFIFPPSDEQLKSGTASVVCLLNNFYPREAKVQWKVDNALQSGNSQESVTEQDSKDSTYSLSSTLTLSKADYEKHKVYACEVTHQGLSSPVTKSFNRGEC
notes: Hexamer of three component polypeptide chains (two of each); outer Fab anti-PD-L1 (HuEM0005-86-64), inner Fab anti-OX40 (HuEM1007-44-16); also called FIT1014-20a (YTE); PD-L1/OX40 FIT-Ig
The term Kd denotes the free concentration of one partner at which half of the binding sites on the other are occupied at equilibrium, for simple one-to-one binding. For orientation: koff means the first-order rate constant of dissociation. What is called kon is the second-order rate constant of association. Broadly, the EC50 (read off the curve) is the concentration giving half of the maximal effect. A lower EC50 (read off the curve) goes with an effect from little substance. B1: the “IC50 (read off the curve)” value in assay [1] was about 0.8 nM. For the same molecule, in assay [2], the dissociation constant (Kd) was 0.587 nM, the koff was 0.000276 s⁻¹ and the kon came out at 470000 M⁻¹ s⁻¹. In assay [3], this molecule registered a Kd of 5.13 nM, a koff of 0.0004 s⁻¹ and a kon of 78000 M⁻¹ s⁻¹. Further, in assay [4], the Kd stood at 0.255 nM, the off-rate (koff) came to 0.000158 s⁻¹ and the kon turned out to be 620000 M⁻¹ s⁻¹. For the same molecule, the “EC50 (read off the curve)” value in assay [5] was about 1 nM.

B2: HuEM0005-86-64 (antibody, human IgG1, kappa, L234A L235A, V domains shown)
VH: EVQLVQSGSELKKPGASVKVSCKASGYTFTTYGINWVRQAPGQGLEWMGYIYIGNAYTEYNEKFKGRFVFSLDTSVSTAYLQISSLKAEDTAVYYCARDLMVIAPKTMDYWGQGTTVTVSS
VL: DIQMTQSPSSVSASVGDRVTITCKASQDVGTAVAWYQQKPGKAPKLLIYWASTRHTGVPSRFSGSGSGTDFTLTISSLQPEDFATYYCQQYSSYPYTFGGGTKVEIKR
notes: Humanized anti-PD-L1; same as HuEM0005-86-21 except Q1E and C82aS (Kabat) in VH; also called parental anti-PD-L1 monoclonal antibody; parental PD-L1 antibody
B2: the “IC50 (read off the curve)” value in assay [1] was about 0.8 nM. For the same molecule, the “EC50 (read off the curve)” value in assay [5] was about 0.8 nM.

B3: HuEM0005-86-21 (antibody, human IgG1, kappa, L234A L235A, V domains shown)
VH: QVQLVQSGSELKKPGASVKVSCKASGYTFTTYGINWVRQAPGQGLEWMGYIYIGNAYTEYNEKFKGRFVFSLDTSVSTAYLQICSLKAEDTAVYYCARDLMVIAPKTMDYWGQGTTVTVSS
VL: DIQMTQSPSSVSASVGDRVTITCKASQDVGTAVAWYQQKPGKAPKLLIYWASTRHTGVPSRFSGSGSGTDFTLTISSLQPEDFATYYCQQYSSYPYTFGGGTKVEIKR
notes: Humanized anti-PD-L1
Regarding B3, in assay [6], the “Off-Rate Ratio to EM0005-86c” value worked out at 88% and the koff was determined as 0.000239 s⁻¹.

B4: EM0005-86c-1 (antibody, V domains shown)
VH: QVQLQQSGAELVRPGSSVKMSCKTSGYTFTTYGINWVKQRPGQGLEWIGYIYIGNAYTEYNEKFKGKATLTSDPSSRTAYMQLSSLTSEDSAIYFCARDLMVIAPKTMDYWGQGTSVTVSS
VL: DIQMNQSHKFMSTSVGDRVSITCKASQDVGTAVAWYQQKPGQSPKLLIYWASTRHTGVPDRFTGGGSGTDFTLTISNVQSEDLADYFCQQYSSYPYTFGGGTKLEMK
notes: Chimeric variant of EM0005-86c
As to B4, in assay [6], the “Off-Rate Ratio to EM0005-86c” value is 69% and the koff was 0.000188 s⁻¹.
